Laboratory results taken from publication PMC4585835, “A novel stearic acid-modified hirudin peptidomimetic with improved pharmacokinetic properties and anticoagulant activity” (Scientific Reports, 2015).
pKi: −log10 of the molar value.

Target: Rat thrombin (rat)
Assay: enzyme inhibition kinetics (thrombin-catalysed hydrolysis of Chromozym TH)

Hirulog-1 (peptide) gave a pKi of 7.69.
